Reference: patent publication US10941182 (Amgen, dated 2021)
Non-standard residues stand in square brackets, D forms with d. dBip = N[C@H](Cc1ccc(-c2ccccc2)cc1)C(=O)O; Oic = O=C(O)[C@@H]1C[C@@H]2CCCC[C@@H]2N1; Phe(4-Cl) = N[C@@H](Cc1ccc(Cl)cc1)C(=O)O; Phe(4-I) = N[C@@H](Cc1ccc(I)cc1)C(=O)O; NMehArg = CN[C@@H](CCCCNC(=N)N)C(=O)O; NMeR = CN[C@@H](CCCNC(=N)N)C(=O)O; hArg = N=C(N)NCCCC[C@H](N)C(=O)O; Cha = N[C@@H](CC1CCCCC1)C(=O)O; NMeL = CN[C@@H](CC(C)C)C(=O)O; Nle = CCCC[C@H](N)C(=O)O; Aib = CC(C)(N)C(=O)O

How the values were obtained:
[1] = biological target: T1, rat APJ receptor (rat, UniProt Q9JHG3 1-377); test: cell-based or functional assay
T1 sequence (looked up): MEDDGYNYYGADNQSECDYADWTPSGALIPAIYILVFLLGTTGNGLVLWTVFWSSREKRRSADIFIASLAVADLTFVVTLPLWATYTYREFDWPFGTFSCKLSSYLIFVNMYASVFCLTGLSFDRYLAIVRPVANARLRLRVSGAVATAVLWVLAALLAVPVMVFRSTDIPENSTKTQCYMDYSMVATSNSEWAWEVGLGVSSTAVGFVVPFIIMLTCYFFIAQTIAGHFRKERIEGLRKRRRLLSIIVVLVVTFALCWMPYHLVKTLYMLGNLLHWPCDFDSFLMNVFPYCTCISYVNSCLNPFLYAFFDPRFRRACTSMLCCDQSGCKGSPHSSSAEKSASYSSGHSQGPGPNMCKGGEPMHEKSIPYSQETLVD

[2] = biological target: T2, human APJ receptor (human, UniProt P35414 1-380); test: cell-based or functional assay
T2 sequence (looked up): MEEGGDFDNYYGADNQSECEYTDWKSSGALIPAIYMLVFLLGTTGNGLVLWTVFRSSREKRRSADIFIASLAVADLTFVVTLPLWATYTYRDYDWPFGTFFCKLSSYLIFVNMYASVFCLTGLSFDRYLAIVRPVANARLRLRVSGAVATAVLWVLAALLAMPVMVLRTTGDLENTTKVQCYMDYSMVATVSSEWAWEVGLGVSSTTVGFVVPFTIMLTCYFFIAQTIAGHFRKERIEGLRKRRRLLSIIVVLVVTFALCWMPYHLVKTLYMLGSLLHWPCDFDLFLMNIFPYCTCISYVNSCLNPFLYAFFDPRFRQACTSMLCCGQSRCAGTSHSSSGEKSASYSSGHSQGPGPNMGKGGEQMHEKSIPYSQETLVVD

| Binder | EC50 Rat APJ Receptor [1] | EC50 Human APJ Receptor [2] |
| --- | --- | --- |
| Ac-QR[NMeR]LSHKGP[Nle]P[Phe(4-Cl)]-OH (SMILES CCCC[C@H](NC(=O)[C@@H]1CCCN1C(=O)CNC(=O)[C@H](CCCCN)NC(=O)[C@H](Cc1c[nH]cn1)NC(=O)[C@H](CO)NC(=O)[C@H](CC(C)C)NC(=O)[C@H](CCCNC(=N)N)N(C)C(=O)[C@H](CCCNC(=N)N)NC(=O)[C@H](CCC(N)=O)NC(C)=O)C(=O)N1CCC[C@H]1C(=O)N[C@@H](Cc1ccc(Cl)cc1)C(=O)O) [SEQ ID NO: 72] | 0.0406 µM | 1.36 nM |
| Ac-QRP[NMeR][Cha]SHKG[Oic][Nle][Aib][Phe(4-Cl)]-OH [SEQ ID NO: 92] | 0.00323 µM | 0.679 nM |
| Ac-[hArg][dR]Q[hArg]P[dR][NMeL]SHKG[Oic][Phe(4-I)]E[dBip]-OH (SMILES CC(=O)N[C@@H](CCCCNC(=N)N)C(=O)N[C@H](CCCNC(=N)N)C(=O)N[C@@H](CCC(N)=O)C(=O)N[C@@H](CCCCNC(=N)N)C(=O)N1CCC[C@H]1C(=O)N[C@H](CCCNC(=N)N)C(=O)N(C)[C@@H](CC(C)C)C(=O)N[C@@H](CO)C(=O)N[C@@H](Cc1c[nH]cn1)C(=O)N[C@@H](CCCCN)C(=O)NCC(=O)N1[C@H](C(=O)N[C@@H](Cc2ccc(I)cc2)C(=O)N[C@@H](CCC(=O)O)C(=O)N[C@H](Cc2ccc(-c3ccccc3)cc2)C(=O)O)C[C@@H]2CCCC[C@@H]21) [SEQ ID NO: 87] | 0.0589 µM | 52.7 nM |
| Ac-E[dR]Q[hArg]P[dR][NMeL]SHKG[Oic][Phe(4-I)]P[dBip]-OH [SEQ ID NO: 75] | 0.00108 µM | 1.56 nM |
| RLIEDICLPRWGCLWXXQRPRLSHKGPXPF ({Acetyl-NH}RLIEDICLPRWGCLW[Aeea][Aeea]QRP[NMeArg]LSHKGP[Nle]P[4-Cl-F]{COOH}) [SEQ ID NO: 91] | 0.000124 µM | 0.0357 nM |
| Ac-[hArg][dR]Q[hArg]P[dR][NMeL]SEKG[Oic][Phe(4-I)]P[dBip]-OH (SMILES CC(=O)N[C@@H](CCCCNC(=N)N)C(=O)N[C@H](CCCNC(=N)N)C(=O)N[C@@H](CCC(N)=O)C(=O)N[C@@H](CCCCNC(=N)N)C(=O)N1CCC[C@H]1C(=O)N[C@H](CCCNC(=N)N)C(=O)N(C)[C@@H](CC(C)C)C(=O)N[C@@H](CO)C(=O)N[C@@H](CCC(=O)O)C(=O)N[C@@H](CCCCN)C(=O)NCC(=O)N1[C@H](C(=O)N[C@@H](Cc2ccc(I)cc2)C(=O)N2CCC[C@H]2C(=O)N[C@H](Cc2ccc(-c3ccccc3)cc2)C(=O)O)C[C@@H]2CCCC[C@@H]21) [SEQ ID NO: 82] | 0.0539 µM | 23.2 nM |
| QRPRXSHKGPXXF ({Acetyl-NH}qRP[NMeArg][Cha]SHKG[aMePro][Nle][Aib][4-Cl-F]{COOH}) [SEQ ID NO: 93] | 0.00079 µM | 0.229 nM |
| Ac-[hArg][dR]Q[hArg]P[dR][NMeL]SHKG[Oic]EP[dBip]-OH (SMILES CC(=O)N[C@@H](CCCCNC(=N)N)C(=O)N[C@H](CCCNC(=N)N)C(=O)N[C@@H](CCC(N)=O)C(=O)N[C@@H](CCCCNC(=N)N)C(=O)N1CCC[C@H]1C(=O)N[C@H](CCCNC(=N)N)C(=O)N(C)[C@@H](CC(C)C)C(=O)N[C@@H](CO)C(=O)N[C@@H](Cc1c[nH]cn1)C(=O)N[C@@H](CCCCN)C(=O)NCC(=O)N1[C@H](C(=O)N[C@@H](CCC(=O)O)C(=O)N2CCC[C@H]2C(=O)N[C@H](Cc2ccc(-c3ccccc3)cc2)C(=O)O)C[C@@H]2CCCC[C@@H]21) [SEQ ID NO: 86] | > 4.17 µM | > 4170 nM |
| Ac-RQRP[NMeR][Cha]SHKGP[Nle]P[Phe(4-Cl)]-OH (SMILES CCCC[C@H](NC(=O)[C@@H]1CCCN1C(=O)CNC(=O)[C@H](CCCCN)NC(=O)[C@H](Cc1c[nH]cn1)NC(=O)[C@H](CO)NC(=O)[C@H](CC1CCCCC1)NC(=O)[C@H](CCCNC(=N)N)N(C)C(=O)[C@@H]1CCCN1C(=O)[C@H](CCCNC(=N)N)NC(=O)[C@H](CCC(N)=O)NC(=O)[C@H](CCCNC(=N)N)NC(C)=O)C(=O)N1CCC[C@H]1C(=O)N[C@@H](Cc1ccc(Cl)cc1)C(=O)O) [SEQ ID NO: 66] | 0.000156 µM | 0.0405 nM |
| Ac-Q[hArg][NMehArg]LSHKGP[Nle]P[Phe(4-Cl)]-OH (SMILES CCCC[C@H](NC(=O)[C@@H]1CCCN1C(=O)CNC(=O)[C@H](CCCCN)NC(=O)[C@H](Cc1c[nH]cn1)NC(=O)[C@H](CO)NC(=O)[C@H](CC(C)C)NC(=O)[C@H](CCCCNC(=N)N)N(C)C(=O)[C@H](CCCCNC(=N)N)NC(=O)[C@H](CCC(N)=O)NC(C)=O)C(=O)N1CCC[C@H]1C(=O)N[C@@H](Cc1ccc(Cl)cc1)C(=O)O) [SEQ ID NO: 74] | 0.0173 µM | 0.48 nM |
| Ac-[hArg][dR]Q[hArg]P[dR]ESHKG[Oic][Phe(4-I)]P[dBip]-OH (SMILES CC(=O)N[C@@H](CCCCNC(=N)N)C(=O)N[C@H](CCCNC(=N)N)C(=O)N[C@@H](CCC(N)=O)C(=O)N[C@@H](CCCCNC(=N)N)C(=O)N1CCC[C@H]1C(=O)N[C@H](CCCNC(=N)N)C(=O)N[C@@H](CCC(=O)O)C(=O)N[C@@H](CO)C(=O)N[C@@H](Cc1c[nH]cn1)C(=O)N[C@@H](CCCCN)C(=O)NCC(=O)N1[C@H](C(=O)N[C@@H](Cc2ccc(I)cc2)C(=O)N2CCC[C@H]2C(=O)N[C@H](Cc2ccc(-c3ccccc3)cc2)C(=O)O)C[C@@H]2CCCC[C@@H]21) [SEQ ID NO: 80] | 0.0687 µM | 127 nM |
| Ac-Q[hArg]P[NMeR][Cha]SHKG[Oic][Nle]P[Phe(4-Cl)]-OH (SMILES CCCC[C@H](NC(=O)[C@@H]1C[C@@H]2CCCC[C@@H]2N1C(=O)CNC(=O)[C@H](CCCCN)NC(=O)[C@H](Cc1c[nH]cn1)NC(=O)[C@H](CO)NC(=O)[C@H](CC1CCCCC1)NC(=O)[C@H](CCCNC(=N)N)N(C)C(=O)[C@@H]1CCCN1C(=O)[C@H](CCCCNC(=N)N)NC(=O)[C@H](CCC(N)=O)NC(C)=O)C(=O)N1CCC[C@H]1C(=O)N[C@@H](Cc1ccc(Cl)cc1)C(=O)O) [SEQ ID NO: 61] | 0.000189 µM | 0.159 nM |
| Ac-[hArg][dR]QEP[dR][NMeL]SHKG[Oic][Phe(4-I)]P[dBip]-OH [SEQ ID NO: 77] | 0.00284 µM | 4.92 nM |
| Ac-[hArg][dR]Q[hArg]P[dR][NMeL]SHKE[Oic][Phe(4-I)]P[dBip]-OH (SMILES CC(=O)N[C@@H](CCCCNC(=N)N)C(=O)N[C@H](CCCNC(=N)N)C(=O)N[C@@H](CCC(N)=O)C(=O)N[C@@H](CCCCNC(=N)N)C(=O)N1CCC[C@H]1C(=O)N[C@H](CCCNC(=N)N)C(=O)N(C)[C@@H](CC(C)C)C(=O)N[C@@H](CO)C(=O)N[C@@H](Cc1c[nH]cn1)C(=O)N[C@@H](CCCCN)C(=O)N[C@@H](CCC(=O)O)C(=O)N1[C@H](C(=O)N[C@@H](Cc2ccc(I)cc2)C(=O)N2CCC[C@H]2C(=O)N[C@H](Cc2ccc(-c3ccccc3)cc2)C(=O)O)C[C@@H]2CCCC[C@@H]21) [SEQ ID NO: 84] | 0.0893 µM | 18.1 nM |
| RLIEDICLPRWGCLWEDDXXQRPRLSHKGPXPF ({Acetyl-NH}RLIEDICLPRWGCLWEDD[Aeea][Aeea]QRP[NMeArg]LSHKGP[Nle]P[4-Cl-F]{COOH}) [SEQ ID NO: 90] | 0.000633 µM | 0.14 nM |
| Ac-[hArg][dR]Q[hArg]P[dR][NMeL]SHEG[Oic][Phe(4-I)]P[dBip]-OH (SMILES CC(=O)N[C@@H](CCCCNC(=N)N)C(=O)N[C@H](CCCNC(=N)N)C(=O)N[C@@H](CCC(N)=O)C(=O)N[C@@H](CCCCNC(=N)N)C(=O)N1CCC[C@H]1C(=O)N[C@H](CCCNC(=N)N)C(=O)N(C)[C@@H](CC(C)C)C(=O)N[C@@H](CO)C(=O)N[C@@H](Cc1c[nH]cn1)C(=O)N[C@@H](CCC(=O)O)C(=O)NCC(=O)N1[C@H](C(=O)N[C@@H](Cc2ccc(I)cc2)C(=O)N2CCC[C@H]2C(=O)N[C@H](Cc2ccc(-c3ccccc3)cc2)C(=O)O)C[C@@H]2CCCC[C@@H]21) [SEQ ID NO: 83] | 0.0847 µM | 54.5 nM |
| Ac-[hArg][dR]Q[hArg]P[dR][NMeL]SHKGE[Phe(4-I)]P[dBip]-OH (SMILES CC(=O)N[C@@H](CCCCNC(=N)N)C(=O)N[C@H](CCCNC(=N)N)C(=O)N[C@@H](CCC(N)=O)C(=O)N[C@@H](CCCCNC(=N)N)C(=O)N1CCC[C@H]1C(=O)N[C@H](CCCNC(=N)N)C(=O)N(C)[C@@H](CC(C)C)C(=O)N[C@@H](CO)C(=O)N[C@@H](Cc1c[nH]cn1)C(=O)N[C@@H](CCCCN)C(=O)NCC(=O)N[C@@H](CCC(=O)O)C(=O)N[C@@H](Cc1ccc(I)cc1)C(=O)N1CCC[C@H]1C(=O)N[C@H](Cc1ccc(-c2ccccc2)cc1)C(=O)O) [SEQ ID NO: 85] | > 4.17 µM | > 4170 nM |
